A short description of this data set: label from the status in PepcDB records.
As to “MKLNRAIGVIDSGVGGLTVAKELIRQLPKERIIYLGDTARCPYGPRSREEVRQFTWEMTEHLLDLNIKMLVIACNTATAVVLEEMQKQLPIPVVGVIHPGSRTALKVTNTYHVGIIGTIGTVKSGAYEEALKSINNRVMVESLACPPFVELVESGNFESEMAYEVVRETLQPLKNTDIDTLILGCTHYPILGPVIKQVMGDKVQLISSGDETAREVSTILYHSKMLNEGEEQSDHLFLTTGKIGLFKEIASKWFGQPIENVKHIHLEKE”, the protein production result is listed as “failed”. As to “MSLTTVGIRGTFFDFVDDPWKHIGNEQAAARFHQDGLMVVTDGVIKAFGPYEKIAAAHPGVEITHIKDRIIVPGFIDGHIHLPQTRVLGAYGEQLLPWLQKSIYPEEIKYKDRNYAREGVKRFLDALLAAGTTTCQAFTSSSPVATEELFEEASRRNMRVIAGLTGIDRNAPAEFIDTPENFYRDSKRLIAQYHDKGRNLYAITPRFAFGASPELLKACQRLKHEHPDCWVNTHISENPAECSGVLVEHPDCQDYLGVYEKFDLVGPKFSGGHGVYLSNNEFRRMSKKGAAVVFCPCSNLFLGSGLFRLGRATDPEHRVKMSFGTDVGGGNRFSMISVLDDAYKVGMCNNTLLDGSIDPSRKDLAEAERNKLSPYRGFWSVTLGGAEGLYIDDKLGNFEPGKEADFVALDPNGGQLAQPWHQSLIADGAGPRTVDEAASMLFAVMMVGDDRCVDETWVMGKRLYKKSEGHHHHHH”, the protein production result is “not failed”.

“MLKVLIQTLILGVLLGASAARAELPADYKVVLLTENFPPFNMAVDDKNFARDDGIDGISADIVREMFRRAGIGYSLSLRFPWDRLYRLTLDKPGYGLFSMTYTPERVPQFKWVGPLADTSWVLLAPAGSKIAVKNLKDAARYKLGAYKNDAVSQHLEAQGIPVINALRDQENVKKLTGGQIDLWATTDPVGRYLAKQEGVSGLQTVLRFNEAKLYLALNKDTPDEVVERLQKALEQMRQEGFVDEAVANYL”: the protein production result is “failed”. For “MNLLVTSSLGVLLHLVVLCQADDHSELLVNTKSGKVMGTRVPVLSSHISAFLGIPFAEPPVGNMRFRRPEPKKPWSGVWNASTYPNNCQQYVDEQFPGFSGSEMWNPNREMSEDCLYLNIWVPSPRPKSTTVMVWIYGGGFYSGSSTLDVYNGKYLAYTEEVVLVSLSYRVGAFGFLALHGSQEAPGNVGLLDQRMALQWVHDNIQFFGGDPKTVTIFGESAGGASVGMHILSPGSRDLFRRAILQSGSPNCPWASVSVAEGRRRAVELGRNLNCNLNSDEELIHCLREKKPQELIDVEWNVLPFDSIFRFSFVPVIDGEFFPTSLESMLNSGNFKKTQILLGVNKDEGSFFLLYGAPGFSKDSESKISREDFMSGVKLSVPHANDLGLDAVTLQYTDWMDDNNGIKNRDGLDDIVGDHNVICPLMHFVNKYTKFGNGTYLYFFNHRASNLVWPEWMGVIHGYEIEFVFGLPLVKELNYTAEEEALSRRIMHYWATFAKTGNPNEPHSQESKWPLFTTKEQKFIDLNTEPMKVHQRLRVQMCVFWNQFLPKLLNATACDGELSSSGTSSSKGIIFYVLFSILYLIF”, the protein production result is on record as “not failed”. As for “MSLKQKILIVEDSMTIRRMLIQAIAQQTGLEIDAFDTLEGARHCQGDEYVVALVDLTLPDAPSGEAVKVLLERGLPVVILTADISEDKREAWLEAGVLDYVMKDSRHSLQYAVGLVHRLYLNQQIEVLVVDDSRTSRHRTMAQLRKQLLQVHEASHAREALATLEQHPAIRLVLVDYYMPEIDGISLVRMLRERYSKQQLAIIGISVSDKRGLSARYLKQGANDFLNQPFEPEELQCRVSHNLEALEQFNSEGHHHHHH”, the protein production result was “not failed”. As to “MKTKIAYEEVAGMLNQWYVMIKRHEVSQAVSIKCDIEHQLPNMEENQDLLLYFNLLDYRHKLLTEEFAASNKLFEDIQEQKADMQSTDDMIEYYYFFFAGMYEFHKKDYTNAINYYKLAEEKLRTIPDQIEIAEFHYKLAIAYYQIKQNFLSLNHAKTALKTFKAHDDYIQKAISNDMLIGANKLDLFRFDEAEQHYKQALKDAALIKHHVLLGMAHHNLGLSYVNRNLLTLAEHHFKEALLIKEHEESVYGIHSMFELTHVLYKSNVVKEARKLYEKGFFRAEKAGEREYLSKFKLIHALYDEQDPLTVEHALEYLKTINLWTDVAELTFDIALYYKENGDADKAAEYFEESHHARDQILKRTEELK”, the protein production entry was “failed”.

For the sequence “MGIYQWRDKKKPSGGKRRYYYKVKRKYAAGRPPTYTTLSAAEEEERKPVRARGGSYKIKAKKVAFAVVSNPKTGEARKARILRIVETPAHREYARRGIIVKGAVIDTTLGRAVVTSRPGQEGVVNAVLLEEQGQKQLEHHHHHH”, the protein production result is recorded as “not failed”.

Consider “MRKLNNHDVHKRYQDRLEEDVEFTINYELPLSCLWSTIKDFSSDFEEKTEAFFILFKELLRRGHLKLQRDGQIIGHTPEEWEQIFREVWPEYEIEPNPLPGYAPFDIGMWLTVEAPAYAVWIDPEDGSEYWAG”, for which the protein production entry is on record as “not failed”. As for “MSDVAATAQRQQVRQQGLILGLVTLPFRCFGVLCGSLFLCIVIECIGMALFWPDQGWRHAQAMLGHELDQLSDYFVRSALVQEPGRTAHQWIQHAYEWAFVRSGLLEWMQDASRQARAGASGRPWSLPQVLATVSMHAEGYLIAAAYTVLLFLVRLLMLCLTLPLFALAAFVGLVDGLVRRDIRRFGAGRESGFLYHRARASLVPLAVLPWVTYLALPVRVHPVVILLPSAVLLGVAVDIAAGSFKKYL”, the protein production entry is reported as “failed”. In the case of “LFYDSEQDKEQSNPYMVLDIDKLFHVRPVTQTDVYRADAKEIPRIFQILYANEGESKKEQEFPVEPVGEKSNYICHKGHEFIPTLYHFPTNCEACMKPLWHMFKPPPALECRRCHIKCHKDHMDKKEEIIAPCKVYYDISTAKNLLLLANSTEEQQKWVSRLV”, the protein production entry is listed as “failed”. “DKEWNEKELQKLHCAFASLPKHKPGFWSEVAAAVGSRSPEECQRKYMENPRGKGSQKHVT”: the protein production entry is “not failed”. “MNHRHYGNFMAALSFVIWGLLPVYYRFLHNAAMDELLAWRIIGSVPVGILIVYAVTRHWPNWSQVWRDKKSLWYTFVASSLMCISWSAFTWALTHHRVIDASLGFFIGPLVSVALGVFVLGDKLSKGQLIAILLATCGVLYQVFQYGQLPFVALTMGLFFALYGLYKKKINYDWSTTLFIEALVLAPFALGYLLFKQWTTGELASSVDTTTLLLYFGSAPITILPLIFYSIAIRITNLSTVGLMQYIEPSLQFILAVVFFGELFDDVKAVTFAFIWVGLLLTIFEGVAKGIKRKKLANHSV”: the protein production result was “failed”. With “SHLVVESFPSYRDVTLFEGKRVSFYKRAQILVADTWSVLEGKGDGCFKDISSITMFADYRLPQVLAHLGALKYSDDLLKKLLKGEMLSYGDRQEVEIRGCSLWCVELIRDCLLELIEQKGEKPNGEINSILLDYYLWDYAHDHREDMKGIPFHRIRCIYY”, the protein production result is on record as “failed”.

As for “MAQPERFGRYRVLRRLGSGSFATVWLGHDDLLDTPVAIKVLAENWAHNLDIHQRFVEEARILRQADSEWLVRVHDIGTLPDDRPYFVMTYADRGSVADRIAQGPLPLDEALRLLTEIGQGVTVLHRHGTIHRDIKPSNVLLQSSPVGERVLVADLGFAKSIDGASGFTASAGTPGYMSPEQSVVGGDIDVRADVYSLGAVAYELVTGKRPPSPPVRVPPSRLRPGVPPALDELIMSALSPNRSDRPPDAATFTSRIREIRMSPDLELATPWWQRYRATWTRLVALVATAVAVLGVAPAASASPHLPMMEIYDASGELHVRVPTPWLRQMQLNGWSPRELGLPGGHEPGLLVATDLDAWSDARQSVSGLFAGLFVSDGQSPDLDRLISSGLCSGQPQRQRFTNAHWDGELWQWVDCSPDSSEGDVFTAAVLQHRGQERTLYLEIRQTEHQPQTVAEILDGLRLIS”, the protein production entry is “failed”. “MPNQPVTVESFMPVEGKLREKVIVKGSNFGTDKSKVKVYFVDEAAERLSTVIGIDNNTLYCLAPRQLPGGNRIKVIVDGKEVTTDGTFKYEQAQNVSTISGSASKDGNDDGDLASAKFKYMWGIAAVGNNTVLAYQRDDPRVRLISVDDNKVTTVHPGFKGGKPAVTKDKQRVYSIGWEGTHTVYVYMKASGWAPTRIGQLGSTFSGKIGAVALDETEEWLYFVDSNKNFGRFNVKTQEVTLIKQLELSGSLGTNPGPYLIYYFVDSNFYMSDQNLSSVYKITPDGECEWFCGSATQKTVQDGLREEALFAQPNGMTVDEDGNFYIVDGFKGYCLRKLDILDGYVSTVAGQVDVASQIDGTPLEATFNYPYDICYDGEGGYWIAEAWGKAIRKYAVELEHHHHHH”: the protein production entry is “not failed”. “MKKVSIIIPFKGQTEAELMLPLSSIYNQIGVDLSQLDIHLVNDGGKTIDLSKFDVLADRLEIHYHEIPNGGPGVARQYGIDNSISEYIMFIDADDVLYYVGALWPFYNASNQGHQMIRASYWEQIAGNPYTYTVHGNGDRKAAYGKWYKRSYIEMLGLRFMPDLPIYEDTYFVGLACELATDTCFLEEKVYMWLANPNSITRTVENKFNYQAHIYARENRYWFEMIRKWKPECLVTDFENYLTNMYLKSQKYPPVDEKAWWEEQHKLITSVSDIFSGWTQELQKQVEDKSANPQNEWHGIETDGFKEWATQSLPW”: the protein production entry is “failed”. Next, “MAYVLTETSAGYALLKASDKKIYKSSSLIQDLDSSDKVLKEFKIAAFSKFNSAANALEEANSIIEGKVSSQLEKLLEEIKKDKKSTLIVSETKLANAINKLGLNFNVVSDAVTLDIYRAIKEYLPELLPGMSDNDLSKMSLGLAHSIGRHKLKFSADKVDVMIIQAIALLDDLDKELNTYAMRCKEWYGWHFPELAKIVTDSVAYARIILTMGIRSKASETDLSEILPEEIEERVKTAAEVSMGTEITQTDLDNINALAEQIVEFAAYREQLSNYLSARMKAIAPNLTQLVGELVGARLIAHSGSLISLAKSPASTIQILGAEKALFRALKTKHDTPKYGLLYHASLVGQATGKNKGKIARVLAAKAAVSLRYDALAEDRDDSGDIGLESRAKVENRLSQLEGRDLRTTPKVVREAKKVEMTEARAYNADADTAKAASDSESDSDDEEEEKKEKKEKKRKRDDDEDSKDSKKAKKEKKDKKEKKEKKEKKEKKEKKEKKEKKSKKEKKEKK”: “failed”; “MDAEKKSAHFRQISSYKPQLLVLSSIQENPSSKISEKANIKADNDAEIGVFGAEKYFSMKLDHVDSTADITKQHEKENTHDHPNANPNPNPNPHPHPHPQLTKTTSSRSKTSRHGTPSVRSESSCNSQTFLMRINNHNENKQRKMNDTSISFGGFRCYGPCSGVKTVHTDPKNSCKSRNSDRDFVAYDARKHNDKPRLHFEAKKADFHAQEKISLPIQRSDIAMNLERKLSLLTWDAIPNQLSTKNNNHNNNGNNSSMSSNTQEEETASVASSDLFEIENITSSVYEPSEASIGWSVVTGSMADQSVISDFDMMKRVTRNGPVVKTKPVIGEKVRSAGFLSGCKSHKAVSVVDSSRKVKETAKVDHHEMSHQKKFKTEIRIQDLSFL”: “failed”.

For “MGHHHHHHSHMRPELEDSTLRYLQDLLAWVEENQHRVDGAEWGVDLPSVEAQLGSHRGLHQSIEEFRAKIERARSDEGQLSPATRGAY”, the protein production result is listed as “failed”. Consider “MRLFIVQAMFTEYRPTHGYDEYFCREQSAPRADLEPLLSSLGAMGLAELNRSHASASNLLRRLGATFRLNGSGLHGGERILPFDPLPRLIHRQEWSVLERGLVQRLEAIDQFLADVYGPQRILNDGVIPREDVESSQGWRPQMQDIAVPLNRWCHISGLDLIRDGDGTWRVLEDNLRCPSGVAYFLENRRVMKRLFPSLFQGRTVQPIDDYPSHLLRTLQDLAPWSDAPRVVLLTPGVFNSAYFEHSYLAQQMGIALVEGRDLICEDGRVWMRSTAGREPVDVIYRRIDDDFLDPNVFRRDSMLGVPGLIDAMRSGRVAIANAPGSGVADDKLIYAYVPAMIRYYLNEEPIIDNVPTYLCSRDDDRRYVLEHLNELVVKSVAEAGGYGMLIGPHASSEEIESFAVKIKAHPRNFIAQPTLQLSTVPSLSEGELYPCHVDLRPYVLRGKSDWVSPGGLTRVALKRGSLVVNSSQGGGCKDTWVVSDSAVTAGNQELVPC”, for which the protein production result is listed as “failed”.

Values taken from a protein production outcome set (Wang et al. 2014).
